# Assay results taken from patent US20220169708A1 (University of California, published 2022).
# Target: T1, cystic fibrosis transmembrane conductance regulator (CFTR) inhibitory factor (Cif) (Pseudomonas aeruginosa, UniProt A0A0H2ZD27 25-319)
# T1 construct: also called CIF protein; Cif-protein
# T1 sequence: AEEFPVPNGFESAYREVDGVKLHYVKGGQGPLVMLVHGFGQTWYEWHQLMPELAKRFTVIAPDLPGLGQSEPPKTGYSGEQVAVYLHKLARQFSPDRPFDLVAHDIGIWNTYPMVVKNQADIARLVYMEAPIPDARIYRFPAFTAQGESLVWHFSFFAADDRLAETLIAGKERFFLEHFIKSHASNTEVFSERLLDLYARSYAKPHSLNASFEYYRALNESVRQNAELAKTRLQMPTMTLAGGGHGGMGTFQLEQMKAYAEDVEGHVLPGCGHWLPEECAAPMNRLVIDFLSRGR
# Test: sandwich ELISA, lower graph: Cif in serial dilution (about 0.05-100 ng/mL) captured on anti-Cif pAb 0.3 ug/well, VHH 50 ng/well, anti-HA mAb detection; the concentration is that of Cif; sheet labels the value IC50, text calls it EC50
# Procedure: (§1) 1). Immunoassay. A 96-well plate was coated with pAb at 3 μg/mL, 100 μL per well at RT for 1 h. The plate was blocked with 1% skimmed milk in PBST at RT for at least 2 h. Cif in PBS was loaded on the plate with increasing concentration and incubated for 1 h at RT. Following 5 times wash with PBST, VHH at 0.5 μg/mL in PBS, 100 μL per well (or 50 ng/well) was loaded. The plate was incubated for 1h at RT and then washed 5 times with wash buffer. Mouse anti-HA-HRP conjugate was added at 100 μl/well in a 1:3000 dilution as instructed by manufacturer. The plate was incubated for 1h at RT and washed 5 times. The plate was developed for 10 min with substrate solution added at 100 μl/well. The reaction was stopped by addition of 2M H₂SO₄ (50 μl/well) and absorbance was read at 450 nm. SigmaPlot 11.0 software was used for curve fitting and data analysis.
# (§2) To evaluate produced recombinant antibodies, classical sandwich ELISA was performed using purified rabbit polyclonal anti-Cif antibodies as a capturing antibody (FIG. 3). […] Cif protein was loaded in a serial dilution range of 0.05-100 ng/mL and VHHs were added at 50 ng per well.
row,Binder,EC50
1,"VHH CLONE 116 (VHH, The entry includes the C-terminal 6xHis and HA tags) VHH: EVQLVESGGGLVQPGGSLRLSCTASGSILKIYTMDWYRQAPGKQRDLVATVSSRGDTDYTDSVKGRFTISRDDAKNTAYLQMSSLKPEDTAVYYCNFYIQSRTAPFNDYWGQGTQVTVSS",0.0312 µg/mL
2,"VHH CLONE 205 (VHH, The entry includes the C-terminal 6xHis and HA tags) VHH: DVQLQASGGGLVQPGGSLRLSCAATGSTDRIAFMGWYRQAPGKLRELVAGITSDGRTNYADDVDVSGRFTISRDSAKNMVYLQMNSLKPEDTAVYYCNADITLAMGGLRVYWGQGTQVTVSS",0.0207 µg/mL
3,"VHH CLONE 220 (VHH, The entry includes the C-terminal 6xHis and HA tags; also called nanobody 220) VHH: EVQLVESGGGLVQPGGSLRLSCVASGNIGNIYTMGWYRQAPGKQRELVAAVGAGELTNYVDSVKGRFTISRDKSKGTVSLEMNSLKPEDTAVYYCNADVSIGPTGLRVYWGQGTQVTVSS",0.0211 µg/mL
4,"VHH CLONE 103 (VHH, The entry includes the C-terminal 6xHis and HA tags) VHH: EVQLMESAGGLVRPGGSLRLSCVASGSIGDIYSMGWYRQAPGKQRELVATVGAGGLTDYGDSVLGRFTISRDKTKGTVSLEMNSLKPEDTAVYYCNADVSIGPTGLRVYWGQGTQVTVSS",0.0168 µg/mL
5,"VHH CLONE 302 (VHH, The entry includes the C-terminal 6xHis and HA tags) VHH: QVKLQESGGGLVQPGGSLRLSCVASGNIGDIYTMGWYRQAPGKQRELVATVGDGGLTNFVDSVKGRFTISRDKSKGTVSLEMNSLKPEDTAVYYCNADVRIGPTGLRVYWGQGTQVTVSS",0.0172 µg/mL

# Target: T1, cystic fibrosis transmembrane …
# Test: sandwich ELISA, upper graph: Cif in serial dilution (about 0.05-100 ng/mL) captured on anti-Cif pAb 0.3 ug/well, VHH 50 ng/well, anti-HA mAb detection; the concentration is that of Cif; sheet labels the value IC50, text calls it EC50
# Procedure: as §1, §2
row,Binder,EC50
1,"VHH CLONE 108 (VHH, The entry includes the C-terminal 6xHis and HA tags) VHH: EVQLVESGGGLVQPGGSLRLSCEATGNFDDRGIGWFRQAPGKEREGIACITTRGRTHYAESVEGRFTISTDIANNAVYLQMNSLKPEDTAVYYCAKAIRLTTDRTQCVAFPGVSWGRGTQVTVSS",0.0098 µg/mL
2,"VHH CLONE 213 (VHH, The entry includes the C-terminal 6xHis and HA tags) VHH: EVQLVESVGGLVQPGGSLRLSCVASGNIGDIYTMGWYRQAPGKQRELVATVGDGGLTNFVDSVKGRFTISRDKSKGTVSLEMNSLKPEDTAVYYCNADVRIGPTGLRVYWGQGTQVTVSS",0.011 µg/mL
3,"VHH CLONE 320 (VHH, The entry includes the C-terminal 6xHis and HA tags; also called nanobody 320) VHH: DVQLQASGGGLVQPGGSLRLSCATSTSVFSITTLGWYRQAPGKQRELVASMKRGGDTNYADSVKGRFTISRDNARNTVFLQMNNLTTEDTAVYYCNAAILAYTGAVTNYWGQGTQVTVSS",0.0061 µg/mL
